Assay [1] addresses His-tagged HM1.24 antigen, residues N49-A163 of the extracellular domain (human) (UniProt Q10589). The assay is described as follows: Biacore (SPR): His-tagged HM1.24 antigen coupled directly to the chip (NHS chemistry), antibody as analyte; separate kd and ka fitting. (In SPR one partner is held on a chip, and binding of the other changes the refractive index at the surface.)
The target is the same in assay [2]. Kind of assay: Biacore (SPR): antibody on a protein A chip, HM1.24 antigen as analyte; antibody post incubation (pH 9, 37 C, 4 days).
The target is the same in assay [3]. The assay is described as follows: Biacore (SPR): antibody on a protein A chip, HM1.24 antigen as analyte; antibody untreated.
Assay [4] has the same target. The assay is described as follows: Biacore (SPR): His-tagged HM1.24 antigen coupled directly to the chip (NHS chemistry), antibody as analyte; simultaneous (global Langmuir) fitting.

Chain of His-tagged HM1.24 antigen, residues N49-A163 of the extracellular domain (human) (Q10589 49-163): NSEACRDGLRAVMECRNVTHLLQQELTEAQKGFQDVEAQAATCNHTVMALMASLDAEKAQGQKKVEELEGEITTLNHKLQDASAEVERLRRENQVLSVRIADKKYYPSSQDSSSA

B1: Antibody comprising the HM1.24_H2.2 heavy chain variant and the HM1.24_L4 light chain (antibody, V domains shown)
VH: EVQLVESGGGLVKPGGSLRLSCAASGYTFTPYWMQWVRQAPGKGLEWMGSIFPGSGDTRYSQSFQGQVTISADKSISTAYMELSSLRSEDTAVYYCARGLRRGGYYFDYWGQGTLVTVSS
VL: DIVMTQSPLSLPVTLGQPASISCKASQDVNTAVAWYLQKPGKSPKLLIYSASNRYTGVPDRITGSGSGTDFTLKISRVEAEDVGVYYCQQHYSTPFTFGSGTKLEIKR
As a reminder, the Kd is the concentration at which binding is half-saturated. In general, koff refers to the rate constant with which the complex falls apart. Read a low koff as slow dissociation. The term kon denotes a measure of how fast the partners come together. Take B1: the Kd in assay [1] came out at 73.2 pM; in assay [4] it was 82.6 pM. Further, the off-rate (koff) was determined as 7.02e-05 s⁻¹ in assay [1], 0.00257 s⁻¹ in assay [2], 0.00287 s⁻¹ in assay [3] and 7.27e-05 s⁻¹ in assay [4]. Besides, the kon in assay [1] turned out to be 958000 M⁻¹ s⁻¹; in assay [4], 879000 M⁻¹ s⁻¹.

The values above are taken from US20100104557A1.
